The values that follow are results of earlier work, collected in PMC3000440.

Some targets named below: IGF-IR (Homo sapiens) (UniProt P08069); EGFR (Homo sapiens) (UniProt P00533); Met (Homo sapiens) (UniProt P08581); IGF-I (Homo sapiens) (UniProt P05019).
UniProt P05019, sequence (P05019 49-118): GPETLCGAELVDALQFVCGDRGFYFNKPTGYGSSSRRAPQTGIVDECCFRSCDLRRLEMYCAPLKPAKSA
UniProt P08581, sequence (P08581 25-932): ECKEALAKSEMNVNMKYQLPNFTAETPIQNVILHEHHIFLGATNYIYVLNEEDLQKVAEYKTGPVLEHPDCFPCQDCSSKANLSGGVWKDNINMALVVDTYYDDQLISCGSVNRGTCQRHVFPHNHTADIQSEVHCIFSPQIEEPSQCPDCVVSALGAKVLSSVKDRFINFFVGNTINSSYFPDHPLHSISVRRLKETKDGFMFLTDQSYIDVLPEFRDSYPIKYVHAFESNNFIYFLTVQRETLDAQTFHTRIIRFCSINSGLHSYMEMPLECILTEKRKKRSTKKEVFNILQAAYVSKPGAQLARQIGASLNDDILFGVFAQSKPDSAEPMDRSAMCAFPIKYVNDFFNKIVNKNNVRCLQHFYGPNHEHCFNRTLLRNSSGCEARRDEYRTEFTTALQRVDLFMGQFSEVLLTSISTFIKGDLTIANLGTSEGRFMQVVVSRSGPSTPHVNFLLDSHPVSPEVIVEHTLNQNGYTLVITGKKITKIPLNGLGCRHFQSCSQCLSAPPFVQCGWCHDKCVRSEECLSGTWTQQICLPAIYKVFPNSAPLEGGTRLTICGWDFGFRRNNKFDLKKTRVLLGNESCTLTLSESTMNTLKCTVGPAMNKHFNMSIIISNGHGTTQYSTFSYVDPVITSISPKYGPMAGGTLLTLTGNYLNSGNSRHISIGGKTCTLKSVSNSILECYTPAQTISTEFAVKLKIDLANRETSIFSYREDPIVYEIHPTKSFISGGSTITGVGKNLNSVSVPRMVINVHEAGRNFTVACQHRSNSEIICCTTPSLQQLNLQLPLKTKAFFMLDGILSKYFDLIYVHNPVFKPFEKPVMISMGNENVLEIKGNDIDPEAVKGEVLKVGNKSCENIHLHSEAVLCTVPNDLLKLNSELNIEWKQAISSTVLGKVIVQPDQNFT
UniProt P08069, sequence (P08069 31-736, chain 1 of 2): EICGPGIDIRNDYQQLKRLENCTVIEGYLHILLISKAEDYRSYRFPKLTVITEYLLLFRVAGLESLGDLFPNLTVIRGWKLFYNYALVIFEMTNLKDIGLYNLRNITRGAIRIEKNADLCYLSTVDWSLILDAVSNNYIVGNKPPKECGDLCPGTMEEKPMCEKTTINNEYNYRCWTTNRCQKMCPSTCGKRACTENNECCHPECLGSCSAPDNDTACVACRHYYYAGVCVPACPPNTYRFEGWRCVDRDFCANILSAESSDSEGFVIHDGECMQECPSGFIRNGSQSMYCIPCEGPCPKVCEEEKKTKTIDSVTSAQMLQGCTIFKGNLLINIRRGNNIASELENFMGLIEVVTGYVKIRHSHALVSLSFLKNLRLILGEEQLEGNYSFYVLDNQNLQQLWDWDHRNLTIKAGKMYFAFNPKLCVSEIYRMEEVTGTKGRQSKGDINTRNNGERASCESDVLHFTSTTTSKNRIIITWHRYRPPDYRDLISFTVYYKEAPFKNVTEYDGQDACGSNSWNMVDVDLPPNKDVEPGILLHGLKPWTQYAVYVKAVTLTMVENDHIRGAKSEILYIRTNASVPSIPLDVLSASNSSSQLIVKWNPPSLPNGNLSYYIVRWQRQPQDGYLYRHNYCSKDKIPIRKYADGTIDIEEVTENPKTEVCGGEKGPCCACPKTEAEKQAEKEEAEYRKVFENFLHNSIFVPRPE
UniProt P08069, sequence (P08069 741-935, chain 2 of 2): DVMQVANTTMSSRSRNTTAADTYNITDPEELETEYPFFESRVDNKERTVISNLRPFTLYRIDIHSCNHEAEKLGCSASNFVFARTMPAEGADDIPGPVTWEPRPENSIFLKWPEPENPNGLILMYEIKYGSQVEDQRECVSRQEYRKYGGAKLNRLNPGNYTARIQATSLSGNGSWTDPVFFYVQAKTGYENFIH

Turning to decorin (from UniProt P07585), the dissociation constant (Kd) with IGF-IR (Homo sapiens) is 1.5 nM; with EGFR (Homo sapiens), 87 nM; in the data set with Met (Homo sapiens), 1.5 nM; in the data set with IGF-I (Homo sapiens), 18 nM.
